Measurements reported in IntAct's records for PubMed 24910198.

B1: SWI/SNF-related matrix-associated actin-dependent regulator of chromatin subfamily A-like protein 1 (Homo sapiens), Q9NZC9 (parent)
chain: MSLPLTEEQRKKIEENRQKALARRAEKLLAEQHQRTSSGTSIAGNPFQAKQGPSQNFPRESCKPVSHGVIFKQQNLSSSSNADQRPHDSHSFQAKGIWKKPEEMPTACPGHSPRSQMALTGISPPLAQSPPEVPKQQLLSYELGQGHAQASPEIRFTPFANPTHKPLAKPKSSQETPAHSSGQPPRDAKLEAKTAKASPSGQNISYIHSSSESVTPRTEGRLQQKSGSSVQKGVNSQKGKCVRNGDRFQVLIGYNAELIAVFKTLPSKNYDPDTKTWNFSMNDYSALMKAAQSLPTVNLQPLEWAYGSSESPSTSSEGQAGLPSAPSLSFVKGRCMLISRAYFEADISYSQDLIALFKQMDSRRYDVKTRKWSFLLEEHSKLIAKVRCLPQVQLDPLPTTLTLAFASQLKKTSLSLTPDVPEADLSEVDPKLVSNLMPFQRAGVNFAIAKGGRLLLADDMGLGKTIQAICIAAFYRKEWPLLVVVPSSVRFTWEQAFLRWLPSLSPDCINVVVTGKDRLTAGLINIVSFDLLSKLEKQLKTPFKVVIIDESHFLKNSRTARCRAAMPVLKVAKRVILLSGTPAMSRPAELYTQIIAVKPTFFPQFHAFGLRYCDAKRMPWGWDYSGSSNLGELKLLLEEAVMLRRLKSDVLSQLPAKQRKIVVIAPGRINARTRAALDAAAKEMTTKDKTKQQQKDALILFFNRTAEAKIPSVIEYILDLLESGREKFLVFAHHKVVLDAITQELERKHVQHIRIDGSTSSAEREDLCQQFQLSERHAVAVLSITAANMGLTFSSADLVVFAELFWNPGVLIQAEDRVHRIGQTSSVGIHYLVAKGTADDYLWPLIQEKIKVLAEAGLSETNFSEMTESTDYLYKDPKQQKIYDLFQKSFEKEGSDMELLEAAESFDPGSASGTSGSSSQNMGDTLDESSLTASPQKKRRFEFFDNWDSFTSPL
B2: TIMELESS-interacting protein (Homo sapiens), Q9BVW5 (parent)
chain: MLEPQENGVIDLPDYEHVEDETFPPFPPPASPERQDGEGTEPDEESGNGAPVRVPPKRTVKRNIPKLDAQRLISERGLPALRHVFDKAKFKGKGHEAEDLKMLIRHMEHWAHRLFPKLQFEDFIDRVEYLGSKKEVQTCLKRIRLDLPILHEDFVSNNDEVAENNEHDVTSTELDPFLTNLSESEMFASELSRSLTEEQQQRIERNKQLALERRQAKLLSNSQTLGNDMLMNTPRAHTVEEVNTDEDQKEESNGLNEDILDNPCNDAIANTLNEEETLLDQSFKNVQQQLDATSRNITEAR

Variants of: B1
Conditions: with rfa2_human RPA2, P15927
Target sequence in this assay (P15927 whole entry): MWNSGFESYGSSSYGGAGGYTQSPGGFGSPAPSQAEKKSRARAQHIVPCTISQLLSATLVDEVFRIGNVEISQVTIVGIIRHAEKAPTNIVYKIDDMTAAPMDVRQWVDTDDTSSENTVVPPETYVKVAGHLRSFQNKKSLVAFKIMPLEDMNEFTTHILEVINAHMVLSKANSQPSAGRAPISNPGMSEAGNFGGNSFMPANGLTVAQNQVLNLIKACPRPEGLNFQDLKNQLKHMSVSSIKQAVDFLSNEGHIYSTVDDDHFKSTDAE

Variant	effect of a mutation on the interaction
R17A;Q18A;K19A	decreasing interaction

Variants of: B1
Conditions: with rfa2_human RPA2, P15927
Remark: another data set of the same source
Target sequence in this assay (P15927 whole entry): as above

Variant	effect of a mutation on the interaction
N16A;R17A	decreasing interaction

Variants of: B1
Conditions: with rfa2_human RPA2, P15927
Remark: another data set of the same source
Target sequence in this assay (P15927 whole entry): as above

Variant	effect of a mutation on the interaction
K27A	decreasing interaction

Variants of: B1
Conditions: with rfa2_human RPA2, P15927
Remark: another data set of the same source
Target sequence in this assay (P15927 whole entry): as above

Variant	effect of a mutation on the interaction
K12A;I13A	decreasing interaction

Variants of: B1
Conditions: with rfa2_human RPA2, P15927
Remark: another data set of the same source
Target sequence in this assay (P15927 whole entry): as above

Variant	effect of a mutation on the interaction
L5A	decreasing interaction

Variants of: B1
Conditions: with rfa2_human RPA2, P15927
Remark: another data set of the same source
Target sequence in this assay (P15927 whole entry): as above

Variant	effect of a mutation on the interaction
A20S;L21S	decreasing interaction

Variants of: B1
Conditions: with rfa2_human RPA2, P15927
Remark: another data set of the same source

Variant	effect of a mutation on the interaction
Q9A	decreasing interaction

Variants of: B2
Conditions: with rfa2_human RPA2, P15927

Variant	effect of a mutation on the interaction
MLEPQENGVIDLPDYEHVEDETFPPFPPPASPERQDGEGTEPDEESGNGAPVRVPPKRTVKRNIPKLDAQRLISERGLPALRHVFDKAKFKGKGHEAEDLKMLIRHMEHWAHRLFPKLQFEDFIDRVEYLGSKKEVQTCLKRIRLDLPILHEDFVSNNDEVAENNEHDVTSTELDPFLTNLSESEMFASELSRSATEEQQQRIERNKQLALERRQAKLLSNSQTLGNDMLMNTPRAHTVEEVNTDEDQKEESNGLNEDILDNPCNDAIANTLNEEETLLDQSFKNVQQQLDATSRNITEAR [L195A]	decreasing interaction
